This series concerns the molecule itself. In words: native MS.

B1: PAXX residues 1-145 (PAXX^1-145) (domain or fragment)
chain: MDPLSPPLCTLPPGPEPPRFVCYCEGEESGEGDRGGFNLYVTDAAELWSTCFTPDSLAALKARFGLSAAEDITPRFRAACEQQAVALTLQEDRASLTLSGGPSALAFDLSKVPGPEAAPRLRALTLGLAKRVWSLERRLAAAEET
For B1, the stoichiometry N – broadly, the number of molecules, sites or subunits per partner or assembly – worked out at 2.

The values are drawn from publication PMC4338599 (Science (New York, N.Y.), 2015).
